Like-named read-outs stand apart in the source and are kept apart here.

What all share (assay): fluorescence anisotropy
In series [1] the target is T1, Dpo1 exo- (SsoDpo1, B-family DNA polymerase) (Sulfolobus solfataricus, UniProt P26811 1-882, D231A;D318A).
T1 sequence: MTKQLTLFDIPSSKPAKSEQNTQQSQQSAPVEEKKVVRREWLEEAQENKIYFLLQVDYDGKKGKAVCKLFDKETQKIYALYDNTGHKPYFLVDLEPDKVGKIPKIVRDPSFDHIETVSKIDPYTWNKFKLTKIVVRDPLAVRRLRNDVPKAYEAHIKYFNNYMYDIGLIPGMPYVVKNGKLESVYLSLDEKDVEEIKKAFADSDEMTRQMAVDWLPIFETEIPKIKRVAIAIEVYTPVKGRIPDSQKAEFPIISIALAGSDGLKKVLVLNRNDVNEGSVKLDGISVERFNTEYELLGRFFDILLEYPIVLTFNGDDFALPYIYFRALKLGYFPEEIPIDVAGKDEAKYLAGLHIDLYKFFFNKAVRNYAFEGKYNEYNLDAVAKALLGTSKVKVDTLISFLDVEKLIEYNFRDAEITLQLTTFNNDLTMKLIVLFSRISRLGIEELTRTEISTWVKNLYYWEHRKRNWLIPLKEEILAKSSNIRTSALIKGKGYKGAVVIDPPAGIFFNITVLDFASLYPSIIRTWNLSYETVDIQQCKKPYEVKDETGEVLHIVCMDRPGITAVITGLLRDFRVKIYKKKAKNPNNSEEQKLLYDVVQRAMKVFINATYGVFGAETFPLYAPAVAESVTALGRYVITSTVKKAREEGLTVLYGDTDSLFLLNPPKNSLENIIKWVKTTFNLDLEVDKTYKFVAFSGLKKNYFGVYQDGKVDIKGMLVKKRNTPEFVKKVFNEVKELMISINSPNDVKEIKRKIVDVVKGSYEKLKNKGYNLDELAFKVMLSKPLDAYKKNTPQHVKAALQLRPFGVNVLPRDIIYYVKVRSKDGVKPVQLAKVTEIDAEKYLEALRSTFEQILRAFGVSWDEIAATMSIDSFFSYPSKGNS

Series [2] deals with T2, Dpo4 (SsoDpo4, Y-family DNA polymerase) (Sulfolobus solfataricus, UniProt Q97W02 1-352).
T2 sequence: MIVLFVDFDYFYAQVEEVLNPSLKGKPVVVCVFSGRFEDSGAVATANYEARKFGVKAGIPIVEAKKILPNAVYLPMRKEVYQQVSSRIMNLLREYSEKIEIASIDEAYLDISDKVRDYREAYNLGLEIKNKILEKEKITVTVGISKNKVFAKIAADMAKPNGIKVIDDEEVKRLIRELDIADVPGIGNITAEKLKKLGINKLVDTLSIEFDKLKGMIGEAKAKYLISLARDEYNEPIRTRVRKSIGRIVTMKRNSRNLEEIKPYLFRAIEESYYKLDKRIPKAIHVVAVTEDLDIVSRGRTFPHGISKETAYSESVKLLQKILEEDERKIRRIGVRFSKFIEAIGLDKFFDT

Series [3] deals with T2, Dpo4 (SsoDpo4, Y-family DNA polymerase). This is another data set of the same source.
The target is the same in series [4]. The source holds these as a separate data set.
Series [5] deals with T1, Dpo1 exo- (SsoDpo1, B-family DNA …). The source holds these as a separate data set.
Series [6] has the same target. The source holds these as a separate data set.
The target of series [7] is T2, Dpo4 (SsoDpo4, Y-family DNA polymerase). This is another data set of the same source.
In series [8] the target is T1, Dpo1 exo- (SsoDpo1, B-family DNA …). This is another data set of the same source.

For the molecule TTTTTTTTTTCCCGGGCCGGCGTTTCGCCGGCCCGGG (structured_DNA) [37-nt hairpin primer-template, 5'-Cy3], the dissociation constant Kd worked out at 170 ± 23 nM in series [1]; 214 ± 3 nM in series [2]; 140 ± 66 nM in series [3]; 164 ± 9 nM in series [4]; 144 ± 3 nM in series [5]; 105 ± 3 nM in series [6]. The results for the Kd in series [7] and in series [8] were 155 ± 65 nM and 94 ± 1 nM, respectively.

The values are drawn from paper PMC3477848 (Biochemistry, 2012).
